# Assays:
# [1] = target: human carboxypeptidase N (human) (UniProt P15169)
# thrombin = assay: cell-based or functional assay
# Sequence of human carboxypeptidase N (human) (P15169 21-458 limits assumed, chain 1 of 2): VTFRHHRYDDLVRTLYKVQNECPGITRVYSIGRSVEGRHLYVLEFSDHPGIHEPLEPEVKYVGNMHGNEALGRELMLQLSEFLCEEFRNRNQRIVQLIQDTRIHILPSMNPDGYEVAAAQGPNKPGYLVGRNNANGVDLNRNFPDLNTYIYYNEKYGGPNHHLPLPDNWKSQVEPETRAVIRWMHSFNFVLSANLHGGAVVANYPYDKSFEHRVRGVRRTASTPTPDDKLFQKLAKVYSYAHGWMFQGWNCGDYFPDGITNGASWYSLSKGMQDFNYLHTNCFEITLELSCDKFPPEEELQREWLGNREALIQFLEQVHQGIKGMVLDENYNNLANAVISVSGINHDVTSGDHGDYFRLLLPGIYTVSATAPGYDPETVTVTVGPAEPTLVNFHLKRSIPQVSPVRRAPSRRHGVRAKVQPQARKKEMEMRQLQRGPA
# Sequence of human carboxypeptidase N (human) (P22792 22-545 limits assumed, chain 2 of 2, further chain): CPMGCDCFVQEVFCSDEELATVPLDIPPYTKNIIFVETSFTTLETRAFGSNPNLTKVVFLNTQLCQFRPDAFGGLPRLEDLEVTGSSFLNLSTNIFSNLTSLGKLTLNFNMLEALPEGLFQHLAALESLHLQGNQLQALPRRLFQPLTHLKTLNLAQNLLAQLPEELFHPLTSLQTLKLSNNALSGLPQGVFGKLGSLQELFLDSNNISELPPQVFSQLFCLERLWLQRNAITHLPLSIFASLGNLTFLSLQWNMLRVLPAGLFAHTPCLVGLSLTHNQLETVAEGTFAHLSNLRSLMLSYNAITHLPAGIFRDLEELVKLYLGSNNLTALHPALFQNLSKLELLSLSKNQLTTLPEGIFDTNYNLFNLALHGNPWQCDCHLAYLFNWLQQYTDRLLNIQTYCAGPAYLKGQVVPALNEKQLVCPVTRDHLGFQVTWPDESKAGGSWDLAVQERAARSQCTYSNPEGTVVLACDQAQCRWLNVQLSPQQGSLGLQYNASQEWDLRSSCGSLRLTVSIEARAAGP
Substance,Ki [1] [nM],increase of TAFIa generation in diluted human plasma (thrombin) [fold]
"protamine sulfate (grade X from salmon, Mr 5,000) (peptide)",970,–
rabbit lung thrombomodulin,–,30 to 35

# Source: patent US7176008
